In assay [1] the target is rat CaMKIIα holoenzyme with pT286 (rat (Rattus norvegicus)) (UniProt P11275). The experiment in a line: high-speed atomic force microscopy; 50 nM CaMKII and 800 nM CaM premixed in buffer B with 1 mM CaCl2 and 1 mM ATP, 30 °C, 5 min; imaged in buffer A with 1 mM CaCl2 and 1 mM ATP on pillar[5]arene-modified mica, 24-26 °C.
The target of assay [2] is rat CaMKIIα holoenzyme (wild type, not phosphorylated) (rat (Rattus norvegicus)) (UniProt P11275). The experiment in a line: high-speed atomic force microscopy; 50 nM CaMKII and 800 nM CaM premixed in buffer B (50 mM tris-HCl pH 7.4, 150 mM KCl, 10 mM MgCl2) with 1 mM CaCl2, 30 °C, 5 min, no ATP; imaged in buffer A with 1 mM CaCl2 on pillar[5]arene-modified mica, 24-26 °C.

Consider “rat calmodulin, 6xHis-tagged (Ca^2+-bound in the assays) (from UniProt P0DP29 1-149) (natural protein; other documents disagree on this pair)”, for which the fraction of Ca^2+/CaM bound longer than 60 s is 77.3% in assay [1] and 41.1% in assay [2].

The values above are taken from article PMC10313165.
